Laboratory results: doi:10.64898/2025.12.17.694835

Tests used:
[1] = target: HALOGluA2(R) (GluA2(R) subunit with HALO domain inserted between signal peptide and N-terminal domain) (rat) (UniProt P19491); experiment: FRET or BRET
[2] = target: HALOGluA3 (GluA3 subunit with HALO domain inserted between signal peptide and N-terminal domain) (rat) (UniProt P19492); experiment: FRET or BRET
Sequence of HALOGluA3 (GluA3 subunit with HALO domain inserted between signal peptide and N-terminal domain) (rat) (P19492 23-888): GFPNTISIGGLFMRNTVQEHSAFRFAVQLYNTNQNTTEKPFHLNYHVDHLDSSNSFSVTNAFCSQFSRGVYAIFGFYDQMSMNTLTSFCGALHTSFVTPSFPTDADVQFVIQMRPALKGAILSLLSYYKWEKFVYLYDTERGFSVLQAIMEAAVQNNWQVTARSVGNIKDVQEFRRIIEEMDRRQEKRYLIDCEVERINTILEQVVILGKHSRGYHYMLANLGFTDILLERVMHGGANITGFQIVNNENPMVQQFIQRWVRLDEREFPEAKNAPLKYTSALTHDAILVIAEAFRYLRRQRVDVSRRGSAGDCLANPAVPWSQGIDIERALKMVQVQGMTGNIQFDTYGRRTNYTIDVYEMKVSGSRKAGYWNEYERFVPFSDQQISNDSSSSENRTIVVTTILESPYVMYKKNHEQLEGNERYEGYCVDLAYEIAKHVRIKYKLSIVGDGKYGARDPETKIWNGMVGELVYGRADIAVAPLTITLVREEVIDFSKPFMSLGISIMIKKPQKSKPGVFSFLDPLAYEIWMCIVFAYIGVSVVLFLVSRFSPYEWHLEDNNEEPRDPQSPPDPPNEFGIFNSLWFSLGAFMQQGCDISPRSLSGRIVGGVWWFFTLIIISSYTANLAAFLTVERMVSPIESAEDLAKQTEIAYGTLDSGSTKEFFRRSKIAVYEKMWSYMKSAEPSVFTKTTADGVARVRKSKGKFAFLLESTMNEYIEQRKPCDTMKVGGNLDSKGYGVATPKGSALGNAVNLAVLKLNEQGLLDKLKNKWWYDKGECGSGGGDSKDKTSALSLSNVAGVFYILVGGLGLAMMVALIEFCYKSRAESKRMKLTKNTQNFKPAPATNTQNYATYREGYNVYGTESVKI

Sequence of CFPGluA1 (GluA1 subunit with CFP inserted between signal peptide and N-terminal domain) (P19490 19-907): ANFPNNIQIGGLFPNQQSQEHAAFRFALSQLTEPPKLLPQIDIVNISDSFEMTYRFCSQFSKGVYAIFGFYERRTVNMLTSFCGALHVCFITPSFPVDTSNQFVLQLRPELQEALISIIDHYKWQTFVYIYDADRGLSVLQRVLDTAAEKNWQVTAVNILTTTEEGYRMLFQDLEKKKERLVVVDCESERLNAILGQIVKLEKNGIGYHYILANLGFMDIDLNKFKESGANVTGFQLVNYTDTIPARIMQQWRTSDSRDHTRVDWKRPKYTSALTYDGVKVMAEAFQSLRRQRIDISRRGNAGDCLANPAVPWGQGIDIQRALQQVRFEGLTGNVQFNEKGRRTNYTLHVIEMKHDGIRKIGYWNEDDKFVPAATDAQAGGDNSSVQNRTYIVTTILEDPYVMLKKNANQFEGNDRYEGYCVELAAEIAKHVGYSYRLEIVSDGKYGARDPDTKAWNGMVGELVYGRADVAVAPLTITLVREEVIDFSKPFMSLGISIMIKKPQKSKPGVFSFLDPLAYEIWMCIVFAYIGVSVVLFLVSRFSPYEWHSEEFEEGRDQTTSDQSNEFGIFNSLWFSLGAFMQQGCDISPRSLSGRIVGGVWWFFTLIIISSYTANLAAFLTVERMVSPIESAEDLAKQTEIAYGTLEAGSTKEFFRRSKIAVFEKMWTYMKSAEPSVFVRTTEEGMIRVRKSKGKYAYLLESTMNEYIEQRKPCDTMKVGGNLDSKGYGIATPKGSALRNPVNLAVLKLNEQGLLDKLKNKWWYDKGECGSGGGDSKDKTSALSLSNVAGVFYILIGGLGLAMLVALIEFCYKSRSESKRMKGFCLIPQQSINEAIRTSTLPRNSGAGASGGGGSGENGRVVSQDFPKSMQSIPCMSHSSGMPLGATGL
Sequence of HALOGluA2(R) (GluA2(R) subunit with HALO domain inserted between signal peptide and N-terminal domain) (rat) (P19491 22-883): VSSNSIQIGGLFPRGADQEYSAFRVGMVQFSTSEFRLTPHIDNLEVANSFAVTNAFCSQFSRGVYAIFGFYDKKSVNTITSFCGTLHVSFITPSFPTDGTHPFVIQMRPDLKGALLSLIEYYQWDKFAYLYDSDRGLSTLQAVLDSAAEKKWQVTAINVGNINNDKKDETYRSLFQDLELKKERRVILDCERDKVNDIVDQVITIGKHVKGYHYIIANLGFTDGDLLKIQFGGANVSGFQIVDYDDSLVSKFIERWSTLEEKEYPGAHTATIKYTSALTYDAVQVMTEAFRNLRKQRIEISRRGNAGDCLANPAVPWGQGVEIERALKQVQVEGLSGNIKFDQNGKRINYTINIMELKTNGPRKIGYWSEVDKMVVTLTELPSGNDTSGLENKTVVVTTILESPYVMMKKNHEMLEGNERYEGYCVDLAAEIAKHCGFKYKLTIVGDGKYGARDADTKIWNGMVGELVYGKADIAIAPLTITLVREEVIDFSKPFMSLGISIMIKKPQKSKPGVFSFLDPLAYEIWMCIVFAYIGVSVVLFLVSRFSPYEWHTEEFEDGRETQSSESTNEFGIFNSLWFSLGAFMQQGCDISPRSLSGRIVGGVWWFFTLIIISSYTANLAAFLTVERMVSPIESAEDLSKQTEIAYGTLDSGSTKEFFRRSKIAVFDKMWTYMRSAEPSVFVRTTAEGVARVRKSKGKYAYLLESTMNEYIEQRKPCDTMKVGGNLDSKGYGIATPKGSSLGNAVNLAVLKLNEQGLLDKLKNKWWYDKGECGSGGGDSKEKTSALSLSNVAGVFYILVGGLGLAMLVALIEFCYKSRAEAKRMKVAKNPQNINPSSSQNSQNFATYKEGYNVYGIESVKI
Sequence of CFPGluA2(R) (GluA2(R) subunit with CFP inserted between signal peptide and N-terminal domain) (P19491 22-883): as above

Substance | CFP (donor) lifetime mean in the presence of the acceptor AF488 [1] | E FRET [1] | CFP (donor) lifetime mean in the presence of the acceptor AF488 [2] | E FRET [2]
CFPGluA1 (GluA1 subunit with CFP inserted between signal peptide and N-terminal domain) (from UniProt P19490 19-907) (receptor) | 2.03 | 38.5% |  | 
CFPGluA2(R) (GluA2(R) subunit with CFP inserted between signal peptide and N-terminal domain) (from UniProt P19491 22-883) (receptor) |  |  | 2.51 | 27%
